Measurements from patent US20240392013A1 (STELEXIS THERAPEUTICS, published 2024).
Changes are numbered by the printed parent chain. One block for each binder: values may come before it.

Legend:
[1] = molecular target: T1, recombinant mouse IL1RAP protein (Sino Biological, Cat #52657-M08H) (mouse, UniProt Q61730 21-359); assay: cell-free ELISA, mouse IL1RAP coated; data not shown
T1 construct: Bought protein
T1 sequence (looked up): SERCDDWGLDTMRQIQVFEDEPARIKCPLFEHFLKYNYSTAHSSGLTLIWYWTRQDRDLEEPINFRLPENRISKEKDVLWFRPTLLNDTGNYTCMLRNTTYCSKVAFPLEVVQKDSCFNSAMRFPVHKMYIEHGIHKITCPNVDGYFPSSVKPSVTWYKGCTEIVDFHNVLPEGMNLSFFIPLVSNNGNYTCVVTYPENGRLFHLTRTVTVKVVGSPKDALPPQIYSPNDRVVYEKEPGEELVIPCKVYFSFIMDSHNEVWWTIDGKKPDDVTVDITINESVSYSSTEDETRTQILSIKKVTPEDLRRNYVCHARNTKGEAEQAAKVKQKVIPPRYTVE
Method in brief: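 Plates coated overnight at 4 °C with recombinant IL1RAP at 1 μg/ml in PBS pH 7.4, then blocked with 1% BSA. Antibodies incubated 1 h at room temperature from 100 nM in seven half-log dilutions. Bound antibody detected with anti-His HRP and chemiluminescence.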

[2] = molecular target: T2, IL1RAP on HEK-Blue IL1β / HEK-Blue IL33 reporter cells (UniProt Q9NPH3 21-570, limits assumed); assay: cell-based or functional assay
T2 sequence (looked up): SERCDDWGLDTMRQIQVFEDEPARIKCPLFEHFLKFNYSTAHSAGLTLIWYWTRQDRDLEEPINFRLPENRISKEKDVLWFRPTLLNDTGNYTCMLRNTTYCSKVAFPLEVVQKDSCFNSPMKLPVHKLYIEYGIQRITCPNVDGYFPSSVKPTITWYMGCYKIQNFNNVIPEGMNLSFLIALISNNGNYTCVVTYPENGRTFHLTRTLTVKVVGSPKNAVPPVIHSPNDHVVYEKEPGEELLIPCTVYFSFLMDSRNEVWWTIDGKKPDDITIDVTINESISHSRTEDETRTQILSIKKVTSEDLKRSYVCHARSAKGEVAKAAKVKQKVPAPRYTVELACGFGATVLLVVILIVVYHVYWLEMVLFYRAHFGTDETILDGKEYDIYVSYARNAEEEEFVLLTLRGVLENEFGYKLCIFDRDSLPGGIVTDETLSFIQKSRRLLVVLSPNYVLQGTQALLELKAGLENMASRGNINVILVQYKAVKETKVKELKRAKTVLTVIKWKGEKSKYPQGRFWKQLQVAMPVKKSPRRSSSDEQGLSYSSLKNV

[3] = molecular target: T3, cyIL1RAP-His (Lake Pharma) (cynomolgus monkey, UniProt A0A2K5X5J5 21-367); assay: Octet BLI; mAb captured on anti-mouse IgG Fc sensor; cyIL1RAP-His analyte
T3 construct: Bought protein (Lake Pharma, lot 16205819371); also called cynomolgus IL1RAP; monkey IL1RAP; not shown: His tag
T3 sequence: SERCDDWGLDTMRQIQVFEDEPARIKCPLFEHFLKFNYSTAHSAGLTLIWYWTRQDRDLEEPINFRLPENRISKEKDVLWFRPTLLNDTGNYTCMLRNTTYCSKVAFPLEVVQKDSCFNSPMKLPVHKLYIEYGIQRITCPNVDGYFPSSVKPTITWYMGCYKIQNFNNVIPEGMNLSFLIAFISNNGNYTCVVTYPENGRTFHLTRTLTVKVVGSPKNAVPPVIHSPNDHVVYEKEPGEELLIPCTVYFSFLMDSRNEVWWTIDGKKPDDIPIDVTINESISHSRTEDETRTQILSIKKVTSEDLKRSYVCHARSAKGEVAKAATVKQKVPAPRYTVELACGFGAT
Method in brief: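 Antibodies at 5 μg/ml were captured on anti-mouse IgG Fc biosensors; His-tagged human or cynomolgus IL1RAP extracellular domain served as analyte at 100, 50 and 25 nM in PBS kinetics buffer (0.1% BSA, 0.02% Tween-20). Association 120 s, dissociation 1200 s; KD (M) calculated from binding kinetics.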

[4] = molecular target: T4, recombinant human IL1RAP protein, extracellular domain His-tagged (Sino Biological, Cat #10121-H08H) (human, UniProt Q9NPH3 21-367); assay: cell-free ELISA, human IL1RAP coated at 1 µg/ml
T4 construct: extracellular domain; Bought protein; The Octet analyte is printed as huIL1RAP-His (Sino Biological, lot MB08MA1301) without a catalogue number; also called huIL1RAP-His; hIL1RAP; not shown: His tag
T4 sequence (looked up): T3 sequence with F183L, P273T, T326K
Experimental: Recombinant human or mouse IL1RAP proteins (Sino Biological, Beijing, China; Cat #10121-H08H and Sino Biological, Cat #52657-M08H respectively) were diluted in PBS, pH 7.4 at concentration of 1 μg/ml, coated on high-binding 384-well clear plates and incubated overnight at 4° C. Following, plates were washed 3× with 0.05% Tween-20 in PBS, pH 7.5 and then blocked with 1% BSA in PBS for 1 hour at room temperature. After 3× washes, wells were incubated with each antibody at the highest concentration of 100 nM followed by seven serial half log dilutions (in 1% BSA and 0.05% Tween-20 in PBS) for 1 hour at room temperature. Plates were then washed 3× and incubated with […] detection antibody (Medna, TX, USA; Cat #D8212, 0.5 μg/ml diluted in 0.02% Tween-20 in PBS). After 5× washes, Supersignal ELISA Pico substrate (Thermofisher, MA, USA; Cat #37069) was applied to wells and chemiluminescent signal was read on Sprectramax L for 200 ms/well. Similarly, detection with specific κ and λ antibodies was conducted to define light chain isotyping.

binding result [1]: no binding (tested: 100 nM)
Max % Inhibition at 200 nM, HEK-BlueIL33 NFκB Reporter Assay [2]: 95%
Kd [3]: 1.29 nM
Response [3]: 0.328
koff [3]: 0.000441 s⁻¹
kon [3]: 342000 M⁻¹ s⁻¹
EC50 [4]: 0.985 nM
B1: STLX2012 (antibody, V domains shown)
VH: QVQLLQSGAEVKKPGSSVKVSCKASGGTFSIYAIDWVRQAPGQGLEWMGGIIPIFGTANSAQKFQGRVTITADKSTSTAYMELSSLRSEDTAVYYCARNGATSDAFDMWGQGTMVTVSS
VL: EIVLTQSPGTLSLSPGERATLSCRASLSVSSNYLAWFQQRPGQAPRLLIHGVSRRATGIPDRFSGSGSGTDFTLTISRLEPEDFAVYYCQQYGSSPLTFGGGTKVEIK
notes: Purified from hybridoma of immunized Alivamab mice; intact IgG; captured on anti-mouse IgG Fc sensors in Octet; kappa light chain; also called 74804_12A21B

binding result [1]: no binding (tested: 100 nM)
IC50, HEK-BlueIL33 NFκB Reporter Assay [2]: 9.62e-09 M (implied; unit not printed)
Max % Inhibition at 200 nM, HEK-BlueIL33 NFκB Reporter Assay [2]: 85%
Kd [3]: 0.97 nM
Response [3]: 0.286
koff [3]: 0.0004 s⁻¹
kon [3]: 412000 M⁻¹ s⁻¹
EC50 [4]: 1.04 nM
B2: STLX2043 (antibody, V domains shown)
VH: B1 VH with A58E, K63N, V68I, S77N, M108I, S118F
VL: B1 VL with H50Y
notes: Purified from hybridoma of immunized Alivamab mice; intact IgG; captured on anti-mouse IgG Fc sensors in Octet; kappa light chain; also called 74804_43F04A
